# Test results: patent US20230194525A1, “PEPTIDE BASED PROBES FOR THE DETECTION OF SARS-COV-2” (priority 2021, published 2023)
# The star is where a group is joined. FITC = O=C1OC2(c3ccc(O)cc3Oc3cc(O)ccc32)c2ccc(NC(=S)*)cc21; DABSYL = CN(C)c1ccc(/N=N/c2ccc(S(=O)(=O)*)cc2)cc1
# B1: {Lys(DABSYL)}QELAAIEWELAANERELAAIEGCFNKTFLDKFNHEAEDLFYQSSLARIAALKYKNAALKKKIA{LYS(FITC)} (peptide)
# chain: K(DABSYL)QELAAIEWELAANERELAAIEGCFNKTFLDKFNHEAEDLFYQSSLARIAALKYKNAALKKKIAK(FITC)
# B2: {Lys(DABSYL)}QELAAIEWELAANERELAAIEGCFNKTFLDKFNHEAEDLFYQSSLARIAALKYKNAALKKKIAALKQ{LYS(FITC)} (peptide)
# chain: K(DABSYL)QELAAIEWELAANERELAAIEGCFNKTFLDKFNHEAEDLFYQSSLARIAALKYKNAALKKKIAALKQK(FITC)
# B3: {Lys(DABSYL)}QELAAIEWELAANERELAAIEGCFNKTFLDKFNHEAEDLFYQSSLARIAALKYKNAALK{LYS(FITC)} (peptide)
# chain: K(DABSYL)QELAAIEWELAANERELAAIEGCFNKTFLDKFNHEAEDLFYQSSLARIAALKYKNAALKK(FITC)
# Target: L subunits (L1, L2, L3)
# Assay: Titration of R units against L subunits, fluorescence intensity after 2 hours
# Assay type: binding
# Details: R 400 nM to 100 pM against 50 nM L in 1×PBS, pH 7.4, 20-25° C., only rank order given
# Procedure: Residual fluorescence can be due to remaining unreacted L subunits.
# In FIG. 4B, R units (400 nM to 100 pM in 1×PBS, pH 7.4) are titrated against 50 nM of L subunits in 1×PBS, pH 7.4 at 20-25° C. and the fluorescence intensities measured after 2 hours. […] All the measurements were performed in triplicates (n=3) and the error bar represents the standard deviation of the data. Statistical analysis was performed using Unpaired t test in GraphPad software and the calculated P is represented as follows: **P<0.01.
row,Molecule,"affinity of R subunits toward L subunits (Kd values), preferential order"
1,B1,RL3>RL1>RL2
2,B2,RL3>RL1>RL2
3,B3,RL3>RL1>RL2
